Measured values: publication PMC11952846, “The sterol-regulating human ARV1 binds cholesterol and phospholipids through its conserved ARV1 homology domain” (The Journal of Biological Chemistry, 2025)

Assays:
[1] = target: the molecule itself; assay: sucrose density gradient centrifugation; 2.5 to 25% sucrose gradient in PBS, 132,000g for 19 h; fractions by SDS-PAGE and western with anti-ARV1; markers ovalbumin (50 kDa), bovine serum albumin (77 kDa), phosphorylase (103 kDa)
[2] = target: T1, 6XHIS-ARV1 (full-length human ARV1, N-terminal 6XHIS tag) (human, UniProt Q9H2C2 1-271); assay: far-Western, overlay or dot blot; GST, GST-ARV1 truncations and 6XHIS-ARV1 dotted onto nitrocellulose, incubated with 6XHIS-ARV1 protein, probed with anti-6XHIS (and anti-GST) antibodies; conditions: both partners purified
T1 construct: human ARV1, 271 amino acids, full length, expressed from pET-28a(+)-6XHIS-ARV1; also called hARV1; not shown: 6XHIS, N-terminal, kept
T1 sequence (looked up): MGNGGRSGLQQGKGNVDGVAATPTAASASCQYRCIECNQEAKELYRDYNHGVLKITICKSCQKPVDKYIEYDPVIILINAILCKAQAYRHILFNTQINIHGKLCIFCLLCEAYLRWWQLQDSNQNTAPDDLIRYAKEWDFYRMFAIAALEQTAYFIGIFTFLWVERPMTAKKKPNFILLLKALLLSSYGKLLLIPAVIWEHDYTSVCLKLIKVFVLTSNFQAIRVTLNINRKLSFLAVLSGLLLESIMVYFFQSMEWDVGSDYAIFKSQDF

B1: E. coli expressed purified full-length ARV1 (sucrose density gradient) (natural protein, human, UniProt Q9H2C2 1-271, looked up)
chain: MGNGGRSGLQQGKGNVDGVAATPTAASASCQYRCIECNQEAKELYRDYNHGVLKITICKSCQKPVDKYIEYDPVIILINAILCKAQAYRHILFNTQINIHGKLCIFCLLCEAYLRWWQLQDSNQNTAPDDLIRYAKEWDFYRMFAIAALEQTAYFIGIFTFLWVERPMTAKKKPNFILLLKALLLSSYGKLLLIPAVIWEHDYTSVCLKLIKVFVLTSNFQAIRVTLNINRKLSFLAVLSGLLLESIMVYFFQSMEWDVGSDYAIFKSQDF
notes: human ARV1, full length; detected with anti-ARV1 antibodies; also called purified ARV1; source: E. coli, purified
stoichiometry N [1]: 2

B2: GST-ARV1-N90 (domain or fragment, human, UniProt Q9H2C2 1-90, looked up)
chain: MGNGGRSGLQQGKGNVDGVAATPTAASASCQYRCIECNQEAKELYRDYNHGVLKITICKSCQKPVDKYIEYDPVIILINAILCKAQAYRH
notes: human ARV1, amino-terminal 90 amino acids, expressed from pGEX-4T1-GST-N90; also called GST-N90; source: E. coli BL21, purified (glutathione beads); not shown: GST, N-terminal, kept
binding result [2]: binds
